# T1: CIPK1-His (Arabidopsis, UniProt Q8RWC9 1-444)
# T1 construct: source: E. coli BL21 (Rosetta), purified; not shown: 6xHis, C-terminal, kept
# T1 sequence (looked up): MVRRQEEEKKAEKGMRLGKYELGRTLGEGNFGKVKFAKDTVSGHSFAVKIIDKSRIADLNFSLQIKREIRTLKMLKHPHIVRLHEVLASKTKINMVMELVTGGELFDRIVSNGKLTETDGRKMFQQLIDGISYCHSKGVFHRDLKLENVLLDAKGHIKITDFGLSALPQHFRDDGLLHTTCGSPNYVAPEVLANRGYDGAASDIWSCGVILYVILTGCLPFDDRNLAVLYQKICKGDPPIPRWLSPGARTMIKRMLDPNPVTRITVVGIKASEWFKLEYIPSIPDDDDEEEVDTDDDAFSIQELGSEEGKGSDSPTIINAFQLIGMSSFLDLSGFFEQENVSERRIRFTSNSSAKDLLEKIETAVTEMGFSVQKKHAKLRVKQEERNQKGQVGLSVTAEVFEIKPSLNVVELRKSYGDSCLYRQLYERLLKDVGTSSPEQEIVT
# Biological target: T1, CIPK1-His
# Assay: pull-down; 5 ug GST-PYR1/PYLs on GST resin at 4 C for 2 h, then 2 ug CIPK1-His for 2 h in pull-down buffer; 6 washes; blots with anti-His and anti-GST
# Conditions: both partners purified
row,binding result,Binder
1,binds,"GST-PYL3 (receptor, Arabidopsis, UniProt Q9SSM7 1-209, looked up, PYL3, ABA receptor, Arabidopsis; source: recombinant protein, purified; not shown: GST, N-terminal, kept) MNLAPIHDPSSSSTTTTSSSTPYGLTKDEFSTLDSIIRTHHTFPRSPNTCTSLIAHRVDAPAHAIWRFVRDFANPNKYKHFIKSCTIRVNGNGIKEIKVGTIREVSVVSGLPASTSVEILEVLDEEKRILSFRVLGGEHRLNNYRSVTSVNEFVVLEKDKKKRVYSVVLESYIVDIPQGNTEEDTRMFVDTVVKSNLQNLAVISTASPT"
2,binds,"GST-PYL6 (receptor, Arabidopsis, UniProt Q8S8E3 1-215, looked up, PYL6, ABA receptor, Arabidopsis; source: recombinant protein, purified; not shown: GST, N-terminal, kept) MPTSIQFQRSSTAAEAANATVRNYPHHHQKQVQKVSLTRGMADVPEHVELSHTHVVGPSQCFSVVVQDVEAPVSTVWSILSRFEHPQAYKHFVKSCHVVIGDGREVGSVREVRVVSGLPAAFSLERLEIMDDDRHVISFSVVGGDHRLMNYKSVTTVHESEEDSDGKKRTRVVESYVVDVPAGNDKEETCSFADTIVRCNLQSLAKLAENTSKFS"
3,binds,"GST-PYR1 (receptor, Arabidopsis, UniProt O49686 1-191, looked up, PYR1, ABA receptor, Arabidopsis; source: recombinant protein, purified; not shown: GST, N-terminal, kept) MPSELTPEERSELKNSIAEFHTYQLDPGSCSSLHAQRIHAPPELVWSIVRRFDKPQTYKHFIKSCSVEQNFEMRVGCTRDVIVISGLPANTSTERLDILDDERRVTGFSIIGGEHRLTNYKSVTTVHRFEKENRIWTVVLESYVVDMPEGNSEDDTRMFADTVVKLNLQKLATVAEAMARNSGDGSGSQVT"

# Continued, binder first:
row,Binder,binding result
1,"GST-PYL1 (receptor, Arabidopsis, UniProt Q8VZS8 1-221, looked up, PYL1, ABA receptor, Arabidopsis; source: recombinant protein, purified; not shown: GST, N-terminal, kept) MANSESSSSPVNEEENSQRISTLHHQTMPSDLTQDEFTQLSQSIAEFHTYQLGNGRCSSLLAQRIHAPPETVWSVVRRFDRPQIYKHFIKSCNVSEDFEMRVGCTRDVNVISGLPANTSRERLDLLDDDRRVTGFSITGGEHRLRNYKSVTTVHRFEKEEEEERIWTVVLESYVVDVPEGNSEEDTRLFADTVIRLNLQKLASITEAMNRNNNNNNSSQVR",binds
2,"GST-PYL5 (receptor, Arabidopsis, UniProt Q9FLB1 1-203, looked up, PYL5, ABA receptor, Arabidopsis; source: recombinant protein, purified; not shown: GST, N-terminal, kept) MRSPVQLQHGSDATNGFHTLQPHDQTDGPIKRVCLTRGMHVPEHVAMHHTHDVGPDQCCSSVVQMIHAPPESVWALVRRFDNPKVYKNFIRQCRIVQGDGLHVGDLREVMVVSGLPAVSSTERLEILDEERHVISFSVVGGDHRLKNYRSVTTLHASDDEGTVVVESYIVDVPPGNTEEETLSFVDTIVRCNLQSLARSTNRQ",binds
3,"GST-PYL4 (receptor, Arabidopsis, UniProt O80920 1-207, looked up, PYL4, ABA receptor, Arabidopsis; source: recombinant protein, purified; not shown: GST, N-terminal, kept) MLAVHRPSSAVSDGDSVQIPMMIASFQKRFPSLSRDSTAARFHTHEVGPNQCCSAVIQEISAPISTVWSVVRRFDNPQAYKHFLKSCSVIGGDGDNVGSLRQVHVVSGLPAASSTERLDILDDERHVISFSVVGGDHRLSNYRSVTTLHPSPISGTVVVESYVVDVPPGNTKEETCDFVDVIVRCNLQSLAKIAENTAAESKKKMSL",binds
4,"GST-PYL2 (receptor, Arabidopsis, UniProt O80992 1-190, looked up, PYL2, ABA receptor, Arabidopsis; source: recombinant protein, purified; not shown: GST, N-terminal, kept) MSSSPAVKGLTDEEQKTLEPVIKTYHQFEPDPTTCTSLITQRIHAPASVVWPLIRRFDNPERYKHFVKRCRLISGDGDVGSVREVTVISGLPASTSTERLEFVDDDHRVLSFRVVGGEHRLKNYKSVTSVNEFLNQDSGKVYTVVLESYTVDIPEGNTEEDTKMFVDTVVKLNLQKLGVAATSAPMHDDE",binds

# Reference: paper PMC10514306, “The CBL1/9-CIPK1 calcium sensor negatively regulates drought stress by phosphorylating the PYLs ABA receptor” (Nature Communications, 2023)
